Measurements: publication PMC5518309 (ChemMedChem, 2014)

Columns and labels:
[1] = cited from earlier work
[2] = molecular target: hY4R (Homo sapiens, UniProt P50391); assay: Radioligand binding assay, displacement of [3H]-hPP
Sequence of hY4R (P50391 whole entry): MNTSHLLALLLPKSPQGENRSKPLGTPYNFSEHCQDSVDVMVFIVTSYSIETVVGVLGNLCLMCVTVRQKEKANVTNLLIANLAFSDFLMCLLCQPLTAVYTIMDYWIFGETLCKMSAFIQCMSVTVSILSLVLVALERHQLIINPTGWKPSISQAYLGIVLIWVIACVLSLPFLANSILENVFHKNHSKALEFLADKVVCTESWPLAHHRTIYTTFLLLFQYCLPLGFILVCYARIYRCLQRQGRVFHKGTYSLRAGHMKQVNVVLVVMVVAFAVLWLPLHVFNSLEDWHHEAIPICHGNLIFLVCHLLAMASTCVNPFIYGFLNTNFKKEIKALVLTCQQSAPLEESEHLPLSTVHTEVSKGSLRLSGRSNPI

Molecule | half-life in the circulation [1] | IC50 [2]
pancreatic polypeptide [PP] | less than 7 min | 
CCCCCCCCCCCCCCCC(=O)N[C@@H](CCC(=O)NCCCC[C@H](NC(=O)[C@H](C)NC(=O)[C@H](Cc1ccc(O)cc1)NC(=O)[C@H](CCC(N)=O)NC(=O)[C@H](C)NC(=O)[C@H](CCSC)NC(=O)[C@H](CCC(N)=O)NC(=O)[C@H](CCC(=O)O)NC(=O)[C@@H]1CCCN1C(=O)[C@@H](NC(=O)[C@H](C)NC(=O)[C@H](CC(N)=O)NC(=O)[C@H](CC(=O)O)NC(=O)CNC(=O)[C@@H]1CCCN1C(=O)[C@H](Cc1ccc(O)cc1)NC(=O)[C@@H](NC(=O)[C@@H]1CCCN1C(=O)[C@H](CCC(=O)O)NC(=O)[C@H](CC(C)C)NC(=O)[C@@H]1CCCN1C(=O)[C@H](C)NC(=O)c1ccc2c(c1)C(=O)OC21c2ccc(O)cc2Oc2cc(O)ccc21)C(C)C)[C@@H](C)O)C(=O)N[C@@H](CC(=O)O)C(=O)N[C@@H](CC(C)C)C(=O)N[C@@H](CCCNC(=N)N)C(=O)N[C@@H](CCCNC(=N)N)C(=O)N[C@@H](Cc1ccc(O)cc1)C(=O)N[C@H](C(=O)N[C@@H](CC(N)=O)C(=O)N[C@@H](CCSC)C(=O)N[C@@H](CC(C)C)C(=O)N[C@H](C(=O)N[C@@H](CCCNC(=N)N)C(=O)N1CCC[C@H]1C(=O)N[C@@H](CCCNC(=N)N)C(=O)N[C@@H](Cc1ccc(O)cc1)C(N)=O)[C@@H](C)O)[C@@H](C)CC)C(=O)O [compound 5, CF-[K^22(E-Pam)]hPP] |  | 8.6 nM
